Data published in IntAct's records for PubMed 25910212.

B1: PiggyBac transposable element-derived protein 1 (Homo sapiens), Q96JS3 (parent)
chain: MYEALPGPAPENEDGLVKVKEEDPTWEQVCNSQEGSSHTQEICRLRFRHFCYQEAHGPQEALAQLRELCHQWLRPEMHTKEQIMELLVLEQFLTILPKELQPCVKTYPLESGEEAVTVLENLETGSGDTGQQASVYIQGQDMHPMVAEYQGVSLECQSLQLLPGITTLKCEPPQRPQGNPQEVSGPVPHGSAHLQEKNPRDKAVVPVFNPVRSQTLVKTEEETAQAVAAEKWSHLSLTRRNLCGNSAQETVMSLSPMTEEIVTKDRLFKAKQETSEEMEQSGEASGKPNRECAPQIPCSTPIATERTVAHLNTLKDRHPGDLWARMHISSLEYAAGDITRKGRKKDKARVSELLQGLSFSGDSDVEKDNEPEIQPAQKKLKVSCFPEKSWTKRDIKPNFPSWSALDSGLLNLKSEKLNPVELFELFFDDETFNLIVNETNNYASQKNVSLEVTVQEMRCVFGVLLLSGFMRHPRREMYWEVSDTDQNLVRDAIRRDRFELIFSNLHFADNGHLDQKDKFTKLRPLIKQMNKNFLLYAPLEEYYCFDKSMCECFDSDQFLNGKPIRIGYKIWCGTTTQGYLVWFEPYQEESTMKVDEDPDLGLGGNLVMNFADVLLERGQYPYHLCFDSFFTSVKLLSALKKKGVRATGTIRENRTEKCPLMNVEHMKKMKRGYFDFRIEENNEIILCRWYGDGIISLCSNAVGIEPVNEVSCCDADNEEIPQISQPSIVKVYDECKEGVAKMDQIISKYRVRIRSKKWYSILVSYMIDVAMNNAWQLHRACNPGASLDPLDFRRFVAHFYLEHNAHLSD
partner: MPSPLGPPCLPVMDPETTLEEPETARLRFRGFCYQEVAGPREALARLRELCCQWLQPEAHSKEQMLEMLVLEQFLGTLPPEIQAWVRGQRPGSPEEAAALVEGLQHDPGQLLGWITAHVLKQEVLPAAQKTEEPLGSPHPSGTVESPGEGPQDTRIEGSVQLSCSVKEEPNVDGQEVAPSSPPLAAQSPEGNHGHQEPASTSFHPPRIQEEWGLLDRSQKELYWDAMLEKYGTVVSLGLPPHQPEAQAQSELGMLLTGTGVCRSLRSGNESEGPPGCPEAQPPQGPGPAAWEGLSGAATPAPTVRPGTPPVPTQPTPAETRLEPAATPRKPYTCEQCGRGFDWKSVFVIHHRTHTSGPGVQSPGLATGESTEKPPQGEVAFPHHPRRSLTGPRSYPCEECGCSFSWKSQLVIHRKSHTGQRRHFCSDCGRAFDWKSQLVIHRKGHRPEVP
B2: Ketohexokinase (Homo sapiens), P50053-2 (parent)
chain: MEEKQILCVGLVVLDVISLVDKYPKEDSEIRCLSQRWQRGGNASNSCTVLSLLGAPCAFMGSMAPGHVADFVLDDLRRYSVDLRYTVFQTTGSVPIATVIINEASGSRTILYYDRSLPDVSATDFEKVDLTQFKWIHIEGRNASEQVKMLQRIDAHNTRQPPEQKIRVSVEVEKPREELFQLFGYGDVVFVSKDVAKHLGFQSAEEALRGLYGRVRKGAVLVCAWAEEGADALGPDGKLLHSDAFPPPRVVDTLGAGDTFNASVIFSLSQGRSVQEALRFGCQVAGKKCGLQGFDGIV
partner: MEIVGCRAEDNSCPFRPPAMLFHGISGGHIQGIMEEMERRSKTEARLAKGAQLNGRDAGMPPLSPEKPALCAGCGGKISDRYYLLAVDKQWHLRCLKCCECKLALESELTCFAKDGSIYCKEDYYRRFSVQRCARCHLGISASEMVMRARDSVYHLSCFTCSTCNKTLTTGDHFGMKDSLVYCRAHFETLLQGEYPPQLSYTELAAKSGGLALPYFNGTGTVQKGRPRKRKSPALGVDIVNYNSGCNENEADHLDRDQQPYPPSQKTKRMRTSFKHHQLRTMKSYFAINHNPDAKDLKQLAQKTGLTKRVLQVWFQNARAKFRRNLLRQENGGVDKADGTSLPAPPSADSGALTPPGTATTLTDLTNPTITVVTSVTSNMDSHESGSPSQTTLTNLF
B3: Polyunsaturated fatty acid 5-lipoxygenase (Homo sapiens), P09917 (parent)
chain: MPSYTVTVATGSQWFAGTDDYIYLSLVGSAGCSEKHLLDKPFYNDFERGAVDSYDVTVDEELGEIQLVRIEKRKYWLNDDWYLKYITLKTPHGDYIEFPCYRWITGDVEVVLRDGRAKLARDDQIHILKQHRRKELETRQKQYRWMEWNPGFPLSIDAKCHKDLPRDIQFDSEKGVDFVLNYSKAMENLFINRFMHMFQSSWNDFADFEKIFVKISNTISERVMNHWQEDLMFGYQFLNGCNPVLIRRCTELPEKLPVTTEMVECSLERQLSLEQEVQQGNIFIVDFELLDGIDANKTDPCTLQFLAAPICLLYKNLANKIVPIAIQLNQIPGDENPIFLPSDAKYDWLLAKIWVRSSDFHVHQTITHLLRTHLVSEVFGIAMYRQLPAVHPIFKLLVAHVRFTIAINTKAREQLICECGLFDKANATGGGGHVQMVQRAMKDLTYASLCFPEAIKARGMESKEDIPYYFYRDDGLLVWEAIRTFTAEVVDIYYEGDQVVEEDPELQDFVNDVYVYGMRGRKSSGFPKSVKSREQLSEYLTVVIFTASAQHAAVNFGQYDWCSWIPNAPPTMRAPPPTAKGVVTIEQIVDTLPDRGRSCWHLGAVWALSQFQENELFLGMYPEEHFIEKPVKEAMARFRKNLEAIVSVIAERNKKKQLPYYYLSPDRIPNSVAI
partner: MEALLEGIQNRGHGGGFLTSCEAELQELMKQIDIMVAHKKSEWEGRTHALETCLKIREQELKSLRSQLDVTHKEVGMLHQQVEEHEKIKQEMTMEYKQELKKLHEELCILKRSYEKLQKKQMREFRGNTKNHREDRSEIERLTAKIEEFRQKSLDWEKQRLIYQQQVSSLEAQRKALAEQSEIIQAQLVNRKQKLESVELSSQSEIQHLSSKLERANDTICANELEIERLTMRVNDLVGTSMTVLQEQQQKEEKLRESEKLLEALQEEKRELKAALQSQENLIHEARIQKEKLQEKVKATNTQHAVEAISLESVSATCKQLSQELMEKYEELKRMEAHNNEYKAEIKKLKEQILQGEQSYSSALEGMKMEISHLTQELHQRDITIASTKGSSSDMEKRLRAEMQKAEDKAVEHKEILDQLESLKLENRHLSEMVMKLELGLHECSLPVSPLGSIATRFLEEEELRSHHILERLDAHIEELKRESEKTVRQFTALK
B4: 5-aminolevulinate synthase, erythroid-specific, mitochondrial (Homo sapiens), P22557-2 (parent)
chain: MVTAAMLLQCCPVLARGPTSLLGKVVKTHQFLFGIGRCPILATQGPNCSQIHLKATKAGGDSPSWAKGHCPFMLSELQDGKSKIVQKAAPEVQEDVKAFKTGNYVFSYDQFFRDKIMEKKQDHTYRVFKTVNRWADAYPFAQHFSEASVASKDVSVWCSNDYLGMSRHPQVLQATQETLQRHGAGAGGTRNISGTSKFHVELEQELAELHQKDSALLFSSCFVANDSTLFTLAKILPGCEIYSDAGNHASMIQGIRNSGAAKFVFRHNDPDHLKKLLEKSNPKIPKIVAFETVHSMDGAICPLEELCDVSHQYGALTFVDEVHAVGLYGSRGAGIGERDGIMHKIDIISGTLGKAFGCVGGYIASTRDLVDMVRSYAAGFIFTTSLPPMVLSGALESVRLLKGEEGQALRRAHQRNVKHMRQLLMDRGLPVIPCPSHIIPIRVGNAALNSKLCDLLLSKHGIYVQAINYPTVPRGEELLRLAPSPHHSPQMMEDFVEKLLLAWTAVGLPLQDVSVAACNFCRRPVHFELMSEWERSYFGNMGPQYVTTYA
partner: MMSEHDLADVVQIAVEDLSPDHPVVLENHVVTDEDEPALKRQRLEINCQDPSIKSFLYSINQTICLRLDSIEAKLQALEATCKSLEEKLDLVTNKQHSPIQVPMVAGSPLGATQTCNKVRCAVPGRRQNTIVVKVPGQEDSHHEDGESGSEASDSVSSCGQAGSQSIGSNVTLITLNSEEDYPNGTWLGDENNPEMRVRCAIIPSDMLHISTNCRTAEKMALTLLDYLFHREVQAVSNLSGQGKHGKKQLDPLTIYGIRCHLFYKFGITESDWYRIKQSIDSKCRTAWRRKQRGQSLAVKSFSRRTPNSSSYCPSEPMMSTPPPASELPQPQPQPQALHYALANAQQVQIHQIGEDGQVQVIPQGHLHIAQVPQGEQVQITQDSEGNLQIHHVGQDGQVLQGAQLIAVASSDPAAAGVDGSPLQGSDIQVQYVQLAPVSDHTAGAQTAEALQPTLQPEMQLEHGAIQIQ

Variants of: B1
Conditions: with zn446_human ZNF446, Q9NWS9

Variant | effect of a mutation on the interaction
G244E | with no effect
H806D | with no effect
I678V | with no effect
Q248E | with no effect
P256L | with no effect

Variants of: B2
Conditions: with lhx9_human LHX9, Q9NQ69

Variant | effect of a mutation on the interaction
G40R | with no effect
A43T | with no effect

Variants of: B3
Conditions: with CEP63, Q96MT8-3

Variant | effect of a mutation on the interaction
E254K | with no effect

Variants of: B4
Conditions: with BANP

Variant | effect of a mutation on the interaction
R411Q | disrupting interaction strength
R133H | with no effect
